Measured values published in the Immune Epitope Database (IEDB).

Experiments:
Assay in all cases: IEDB peptide-MHC binding, purified MHC/competitive/radioactivity; filed as Kd, often an IC50 or EC50 that approximates it; ≥ and ≤ were set here for values at or beyond the usual limits of such assays
[1] = molecular target: HLA-A*02:02
[2] = molecular target: HLA-A*02:03
[3] = molecular target: HLA-A*02:06
[4] = molecular target: HLA-A*33:01
[5] = molecular target: HLA-A*11:01
[6] = molecular target: HLA-A*03:01
[7] = molecular target: HLA-A*68:01
[8] = molecular target: HLA-A*31:01
[9] = source organism: Vaccinia virus WR
[10] = source organism: SARS coronavirus Tor2
[11] = source organism: Dengue virus 3 Martinique/1243/1999
[12] = source organism: Mammarenavirus whitewaterense
[13] = source organism: Dengue virus 2 Jamaica/1409/1983
[14] = source organism: Mammarenavirus lassaense

Sequence	Kd [1, 9]	Kd [2, 9]	Kd [3, 9]	also measured
DVEKRILNT	5820 nM	6720 nM	≥ 77100 nM	
MLNRVQILM	4.75 nM	26.9 nM	2560 nM	
SLVKPTVYV				Kd [1, 10]: 108 nM; Kd [2, 10]: 37.2 nM; Kd [3, 10]: 473 nM
LLKCVSDSWL	75.5 nM	118 nM	4730 nM	
DVGCLLTDTI	10700 nM	15600 nM	9990 nM	
EVTPEYIKDL	1520 nM	2270 nM	7670 nM	
HVLLPFYETL	29.4 nM	213 nM	115 nM	
KTPLYYLSGT	≥ 21900 nM	3110 nM	1420 nM	
GILIYDDNI	11700 nM	1700 nM	13300 nM	
TLATGPITTL				Kd [2, 11]: 12 nM
TLYAVATTIL				Kd ([2]; source organism: Dengue virus 4 Philippines/H241/1956): 101 nM
IALCKVTVPT	1950 nM	2220 nM	652 nM	
DAIKSNNHLT	≥ 27400 nM	17900 nM	≥ 69800 nM	
ILQMREIIT	4100 nM	1340 nM	1230 nM	
LVQYRILPMI	12500 nM	1200 nM	712 nM	
CVMYASALV				Kd [1, 10]: 4.48 nM; Kd [2, 10]: 2.94 nM; Kd [3, 10]: 7.36 nM
DVFRPLFDFV	1020 nM	2570 nM	232 nM	
LLWFLTGTFV	2.42 nM	9.18 nM	18 nM	
TLIDFYLCFL				Kd [1, 10]: 0.0405 nM; Kd [2, 10]: 3.57 nM; Kd [3, 10]: 3.01 nM
QLVFNSISA	4800 nM	1560 nM	3780 nM	
STQQNKLVI	≥ 53000 nM	14400 nM	≥ 77100 nM	
LISLINSLV	0.478 nM	0.478 nM	72.4 nM	

Sequence	Kd [1, 9]	Kd [2, 9]	Kd [3, 9]	also measured
LLNVQTLISL	23.7 nM	16.1 nM	96.7 nM	
YVILKDPRI	1550 nM	203 nM	11.7 nM	
HVLLPFYET	16400 nM	18600 nM	1740 nM	
FVVTTDISEM				Kd [3, 11]: 297 nM
FLLRGPFEAS				Kd [1, 12]: 27.1 nM; Kd [2, 12]: 83.5 nM; Kd [3, 12]: 70.3 nM
ASAWTLYAV				Kd [3, 13]: 8.11 nM
DLFMSHVKSV	3380 nM	41.7 nM	19800 nM	
EQGDIALAL	701 nM	11100 nM	4770 nM	
GVLPEETNI	17300 nM	≥ 20400 nM	573 nM	
NIFMTLVPV	86.2 nM	6.38 nM	227 nM	
WALRHPGFTV				Kd ([3]; source organism: Dengue virus 1 Brazil/97-11/1997): 83.7 nM
SARNKLFKR				Kd [4, 9]: 69.6 nM; Kd [5, 9]: 5710 nM; Kd [6, 9]: ≥ 58700 nM; Kd [7, 9]: 441 nM; Kd [8, 9]: 1.25 nM
QAELTSNCTR				Kd [4, 9]: 818 nM; Kd [5, 9]: 2430 nM; Kd [6, 9]: 2530 nM; Kd [7, 9]: 240 nM; Kd [8, 9]: 801 nM
GMSYYCKSHK				Kd [4, 10]: 9960 nM; Kd [5, 10]: 91.3 nM; Kd [6, 10]: 20 nM; Kd [7, 10]: 1370 nM; Kd [8, 10]: 111 nM
SGSCLNNEK				Kd [4, 14]: ≥ 59800 nM; Kd [5, 14]: 556 nM; Kd [6, 14]: ≥ 20300 nM; Kd [7, 14]: 876 nM; Kd [8, 14]: ≥ 60900 nM
GLFDFVNFVK				Kd [4, 9]: 1200 nM; Kd [5, 9]: 0.911 nM; Kd [6, 9]: 0.324 nM; Kd [7, 9]: 7.36 nM; Kd [8, 9]: 66.1 nM
LILNFLDWIK				Kd [4, 9]: 7300 nM; Kd [5, 9]: 9.27 nM; Kd [6, 9]: 25.1 nM; Kd [7, 9]: 165 nM; Kd [8, 9]: 163 nM
QLCYCPASKK				Kd [4, 9]: ≥ 59500 nM; Kd [5, 9]: 96.2 nM; Kd [6, 9]: 170 nM; Kd [7, 9]: 468 nM; Kd [8, 9]: 12500 nM
RALIFILLTA				Kd [3, 13]: 140 nM
IMVASDVCKK				Kd [4, 9]: 7130 nM; Kd [5, 9]: 53.3 nM; Kd [6, 9]: 16.9 nM; Kd [7, 9]: 74.4 nM; Kd [8, 9]: 270 nM
YVKALTKNY				Kd [4, 9]: ≥ 77700 nM; Kd [5, 9]: 12700 nM; Kd [6, 9]: 1590 nM; Kd [7, 9]: 1800 nM; Kd [8, 9]: ≥ 77900 nM
